Results taken from patent US20210388087A1 (Chugai, published 2021).

molecular target: T1, CD3 epsilon homodimer protein (UniProt P07766 23-126); assay: SPR, CD3 epsilon homodimer on chip, one-arm antibody as analyte;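 note: surface plasmon resonance at 25 °C with CD3 epsilon homodimer amine-coupled to a CM4 sensor chip, antibody injected as analyte, HBS-EP+ as running buffer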
T1 construct: also called CD3 (CD3 epsilon)
T1 sequence (P07766 23-126): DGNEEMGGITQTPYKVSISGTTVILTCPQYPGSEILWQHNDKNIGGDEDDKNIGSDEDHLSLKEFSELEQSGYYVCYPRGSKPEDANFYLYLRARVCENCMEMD

Row | Binder | KD ratio (KD of CE115HA000/KD of altered form)
1 | CE115HA000 N31D (antibody, human IgG1, kappa, L234A L235A, N297A, name in Kabat numbering, one-arm antibody) heavy: QVQLVESGGGVVQPGRSLRLSCAASGFTFSDAWMHWVRQAPGKGLEWVAQIKAKSNNYATYYAESVKGRFTISRDDSKNSLYLQMNSLKTEDTAVYYCRYVHYGAYYGVDAWGQGTTVTVSSASTKGPSVFPLAPSSKSTSGGTAALGCLVKDYFPEPVTVSWNSGALTSGVHTFPAVLQSSGLYSLSSVVTVPSSSLGTQTYICNVNHKPSNTKVDKKVEPKSCDKTHTCPPCPAPEAAGGPSVFLFPPKPKDTLMISRTPEVTCVVVDVSHEDPEVKFNWYVDGVEVHNAKTKPREEQYASTYRVVSVLTVLHQDWLNGKEYKCKVSNKALPAPIEKTISKAKGQPREPQVYTLPPSRCELTKNQVSLSCAVKGFYPSDIAVEWESNGQPENNYKTTPPVLDSDGSFFLVSKLTVDKSRWQQGNVFSCSVMHEALHNHYTQKSLSLSPDYKDDDDK EPKSSDKTHTCPPCPAPELLGGPSVFLFPPKPKDTLMISRTPEVTCVVVDVSHEDPEVKFNWYVDGVEVHNAKTKPREEQYNSTYRVVSVLTVLHQDWLNGKEYKCKVSNKALPAPIEKTISKAKGQPREPQVCTLPPSRDELTKNQVSLWCLVKGFYPSDIAVEWESNGQPENNYKTTPPVLDSDGSFFLYSKLTVDKSRWQQGNVFSCSVMHEALHNRYTQKSLSLSP light: DIVMTQSPLSLPVTPGEPASISCRSSQSLVHSNRNTYLHWYQQKPGQAPRLLIYKVSNRFSGVPDRFSGSGSGTDFTLKISRVEAEDVGVYYCGQGTQVPYTFGQGTKLEIKRTVAAPSVFIFPPSDEQLKSGTASVVCLLNNFYPREAKVQWKVDNALQSGNSQESVTEQDSKDSTYSLSSTLTLSKADYEKHKVYACEVTHQGLSSPVTKSFNRGEC | 1.14
2 | CE115HA000 N31H (antibody, human IgG1, kappa, L234A L235A, N297A, name in Kabat numbering, one-arm antibody) heavy: QVQLVESGGGVVQPGRSLRLSCAASGFTFSHAWMHWVRQAPGKGLEWVAQIKAKSNNYATYYAESVKGRFTISRDDSKNSLYLQMNSLKTEDTAVYYCRYVHYGAYYGVDAWGQGTTVTVSSASTKGPSVFPLAPSSKSTSGGTAALGCLVKDYFPEPVTVSWNSGALTSGVHTFPAVLQSSGLYSLSSVVTVPSSSLGTQTYICNVNHKPSNTKVDKKVEPKSCDKTHTCPPCPAPEAAGGPSVFLFPPKPKDTLMISRTPEVTCVVVDVSHEDPEVKFNWYVDGVEVHNAKTKPREEQYASTYRVVSVLTVLHQDWLNGKEYKCKVSNKALPAPIEKTISKAKGQPREPQVYTLPPSRCELTKNQVSLSCAVKGFYPSDIAVEWESNGQPENNYKTTPPVLDSDGSFFLVSKLTVDKSRWQQGNVFSCSVMHEALHNHYTQKSLSLSPDYKDDDDK EPKSSDKTHTCPPCPAPELLGGPSVFLFPPKPKDTLMISRTPEVTCVVVDVSHEDPEVKFNWYVDGVEVHNAKTKPREEQYNSTYRVVSVLTVLHQDWLNGKEYKCKVSNKALPAPIEKTISKAKGQPREPQVCTLPPSRDELTKNQVSLWCLVKGFYPSDIAVEWESNGQPENNYKTTPPVLDSDGSFFLYSKLTVDKSRWQQGNVFSCSVMHEALHNRYTQKSLSLSP light: DIVMTQSPLSLPVTPGEPASISCRSSQSLVHSNRNTYLHWYQQKPGQAPRLLIYKVSNRFSGVPDRFSGSGSGTDFTLKISRVEAEDVGVYYCGQGTQVPYTFGQGTKLEIKRTVAAPSVFIFPPSDEQLKSGTASVVCLLNNFYPREAKVQWKVDNALQSGNSQESVTEQDSKDSTYSLSSTLTLSKADYEKHKVYACEVTHQGLSSPVTKSFNRGEC | 0.96
3 | CE115HA000 N31F (antibody, human IgG1, kappa, L234A L235A, N297A, name in Kabat numbering, one-arm antibody) heavy: QVQLVESGGGVVQPGRSLRLSCAASGFTFSFAWMHWVRQAPGKGLEWVAQIKAKSNNYATYYAESVKGRFTISRDDSKNSLYLQMNSLKTEDTAVYYCRYVHYGAYYGVDAWGQGTTVTVSSASTKGPSVFPLAPSSKSTSGGTAALGCLVKDYFPEPVTVSWNSGALTSGVHTFPAVLQSSGLYSLSSVVTVPSSSLGTQTYICNVNHKPSNTKVDKKVEPKSCDKTHTCPPCPAPEAAGGPSVFLFPPKPKDTLMISRTPEVTCVVVDVSHEDPEVKFNWYVDGVEVHNAKTKPREEQYASTYRVVSVLTVLHQDWLNGKEYKCKVSNKALPAPIEKTISKAKGQPREPQVYTLPPSRCELTKNQVSLSCAVKGFYPSDIAVEWESNGQPENNYKTTPPVLDSDGSFFLVSKLTVDKSRWQQGNVFSCSVMHEALHNHYTQKSLSLSPDYKDDDDK EPKSSDKTHTCPPCPAPELLGGPSVFLFPPKPKDTLMISRTPEVTCVVVDVSHEDPEVKFNWYVDGVEVHNAKTKPREEQYNSTYRVVSVLTVLHQDWLNGKEYKCKVSNKALPAPIEKTISKAKGQPREPQVCTLPPSRDELTKNQVSLWCLVKGFYPSDIAVEWESNGQPENNYKTTPPVLDSDGSFFLYSKLTVDKSRWQQGNVFSCSVMHEALHNRYTQKSLSLSP light: DIVMTQSPLSLPVTPGEPASISCRSSQSLVHSNRNTYLHWYQQKPGQAPRLLIYKVSNRFSGVPDRFSGSGSGTDFTLKISRVEAEDVGVYYCGQGTQVPYTFGQGTKLEIKRTVAAPSVFIFPPSDEQLKSGTASVVCLLNNFYPREAKVQWKVDNALQSGNSQESVTEQDSKDSTYSLSSTLTLSKADYEKHKVYACEVTHQGLSSPVTKSFNRGEC | 1.24
4 | CE115HA000 N31G (antibody, human IgG1, kappa, L234A L235A, N297A, name in Kabat numbering, one-arm antibody) heavy: QVQLVESGGGVVQPGRSLRLSCAASGFTFSGAWMHWVRQAPGKGLEWVAQIKAKSNNYATYYAESVKGRFTISRDDSKNSLYLQMNSLKTEDTAVYYCRYVHYGAYYGVDAWGQGTTVTVSSASTKGPSVFPLAPSSKSTSGGTAALGCLVKDYFPEPVTVSWNSGALTSGVHTFPAVLQSSGLYSLSSVVTVPSSSLGTQTYICNVNHKPSNTKVDKKVEPKSCDKTHTCPPCPAPEAAGGPSVFLFPPKPKDTLMISRTPEVTCVVVDVSHEDPEVKFNWYVDGVEVHNAKTKPREEQYASTYRVVSVLTVLHQDWLNGKEYKCKVSNKALPAPIEKTISKAKGQPREPQVYTLPPSRCELTKNQVSLSCAVKGFYPSDIAVEWESNGQPENNYKTTPPVLDSDGSFFLVSKLTVDKSRWQQGNVFSCSVMHEALHNHYTQKSLSLSPDYKDDDDK EPKSSDKTHTCPPCPAPELLGGPSVFLFPPKPKDTLMISRTPEVTCVVVDVSHEDPEVKFNWYVDGVEVHNAKTKPREEQYNSTYRVVSVLTVLHQDWLNGKEYKCKVSNKALPAPIEKTISKAKGQPREPQVCTLPPSRDELTKNQVSLWCLVKGFYPSDIAVEWESNGQPENNYKTTPPVLDSDGSFFLYSKLTVDKSRWQQGNVFSCSVMHEALHNRYTQKSLSLSP light: DIVMTQSPLSLPVTPGEPASISCRSSQSLVHSNRNTYLHWYQQKPGQAPRLLIYKVSNRFSGVPDRFSGSGSGTDFTLKISRVEAEDVGVYYCGQGTQVPYTFGQGTKLEIKRTVAAPSVFIFPPSDEQLKSGTASVVCLLNNFYPREAKVQWKVDNALQSGNSQESVTEQDSKDSTYSLSSTLTLSKADYEKHKVYACEVTHQGLSSPVTKSFNRGEC | 1.37
